Measurements reported in patent publication US20070196354A1, “Method of treating diabetes by inhibiting degradation of at least one of crebl1, atf6, and hnf-4 alpha by htra” (priority 2003, published 2007).

Molecular target: T1, HNF-4α (Homo sapiens, UniProt P41235)
T1 construct: expressed in transfected cells; host or cells: HEK293T
T1 sequence (P41235 10-474): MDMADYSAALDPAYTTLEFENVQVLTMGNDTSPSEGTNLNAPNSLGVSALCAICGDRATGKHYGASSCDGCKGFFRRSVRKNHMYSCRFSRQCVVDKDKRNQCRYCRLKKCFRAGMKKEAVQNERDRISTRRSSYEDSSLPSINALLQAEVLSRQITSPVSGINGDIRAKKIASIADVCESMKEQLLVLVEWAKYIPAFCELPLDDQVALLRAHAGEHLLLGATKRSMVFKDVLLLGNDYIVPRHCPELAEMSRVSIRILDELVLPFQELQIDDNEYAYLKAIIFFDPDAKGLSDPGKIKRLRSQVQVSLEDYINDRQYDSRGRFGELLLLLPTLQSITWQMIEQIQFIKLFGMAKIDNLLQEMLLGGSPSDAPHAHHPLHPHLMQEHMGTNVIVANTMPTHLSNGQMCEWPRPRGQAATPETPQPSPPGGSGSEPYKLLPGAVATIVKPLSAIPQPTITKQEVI
Experiment: In vitro protease assay, HNF-4α captured on resin
Format: biochemical
Conditions: 50 μg/ml, 37° C., overnight (O/N), anti-FLAG detection
Method: HNF-4α captured on the resin by immunoprecipitation was used in the experiments in order to eliminate the influence of proteinaceous impurities contained in the HNF-4α soluble fraction. More specifically, 300 μl of HNF-4α soluble fraction was dispensed to six tubes (Nos. 1 to 6), followed by adding 20 μl of protein G sepharose 4 FF (Amersham) of 50% slurry that had been subjected to blocking with BSA, to each of tubes, subjected to overturned mixing at 4° C. for 1 hour, and then subjected to centrifugation (10,000 rpm, 10 sec, 4° C.) to collect the supernatant, and thus the pre-treatment (pre-clean) was performed. The resultant supernatant was mixed with 0.4 μl (2 μg) of anti-FLAG antibody (Sigma) by overturned mixing at 4° C. for 3 hours, followed by adding 20 μl of protein G sepharose 4 FF that had been subjected to blocking with BSA, and then subjected to overturned mixing at 4° C. overnight. Thus, HNF-4α was captured on protein G sepharose 4 FF. […]

B1: mature HtrA2: SEQ ID NO: 4; mature protein generated from HtrA2 precursor by cleavage of N-terminal 133 residues, has protease activity (protein, listed as Homo sapiens)
chain: MAVPSPPPASPRSQYNFIADVVEKTAPAVVYIEILDRHPFLGREVPISNGSGFVVAADGLIVTNAHVVADRRRVRVRLLSGDTYEAVVTAVDPVADIATLRIQTKEPLPTLPLGRSADVRQGEFVVAMGSPFALQNTITSGIVSSAQRPARDLGLPQTNVEYIQTDAAIDFGNSGGPLVNLDGEVIGVNTMKVTAGISFAIPSDRLREFLHRGEKKNSSSGISGSQRRYIGVMMLTLSPSILAELQLREPSFPDVQHGVLIHKVILGSPAHRAGLRPGDVILAIGEQMVQNAEDVYEAVRTQSQLAVQIRRGRETLTLYVTPEVTE
modifications: mature HtrA2
**Q.** Which “degradation of HNF-4α (band by western blotting)” value does the source give for B1 here?
**A.** the band of HNF-4α was reduced significantly
